In US20170183667A1 (ANAEROPHARMA SCIENCE, published 2017):
Blank lines part the entries; values can stand above or below the binder they belong to.

Key:
[1] = biological target: T1, Recombinant Human PD-1 Fc Chimera (R&D Systems) (human, UniProt Q15116 25-167); assay: ELISA, hPD-1 Fc chimera immobilised, scFv 1 ng/mL
T1 construct: Bought reagent; also called hPD-1; Fc part of the bought chimera not given, not described
Procedure: (§1) After the solution was removed, 350 μL of 1×PBS was dispensed and the solution was removed. This operation was repeated three times to carry out washing. In the above plates, 350 μL of a 1% BSA solution was dispensed and incubated at room temperature for 2 hours to carry out blocking. After removing the solution, 350 μL of 1×PBS was dispensed and the solution was removed. This operation was repeated three times to carry out washing.
(§2) Each solution (100 μL) was dispensed in the plates to which blocking treatment was already applied. […] To a blank well, a signal enhancing reagent (100 μL) alone was dispensed. After the plates were sealed and incubated at room temperature for 2 hours, immobilized hPD-1 was allowed to react with each of the scFv antibodies. After the solution was removed, 350 μL of 1×PBS was dispensed and the solution was removed. This operation was repeated three times to carry out washing.
(§3) This solution (200 μL) was dispensed in the plates. The plates were sealed and incubated at room temperature for 20 minutes. […] Absorbance at 450 nm was measured, whereas absorbance at 570 nm was measured as a control.

[2] = biological target: T1, Recombinant Human PD-1 Fc Chimera (R&D …); assay: ELISA, hPD-1 Fc chimera immobilised, scFv 10 ng/mL
Procedure: as §1, §2, §3

[3] = biological target: T1, Recombinant Human PD-1 Fc Chimera (R&D …); assay: ELISA, hPD-1 Fc chimera immobilised, scFv 100 ng/mL
Procedure: as §1, §2, §3

[4] = biological target: T1, Recombinant Human PD-1 Fc Chimera (R&D …); assay: ELISA, hPD-1 Fc chimera immobilised, scFv 1000 ng/mL
Procedure: as §1, §2, §3

[5] = biological target: T2, Recombinant Mouse PD-1 Fc Chimera (R&D Systems) (mouse, UniProt Q02242 25-167); assay: ELISA, mPD-1 Fc chimera immobilised, scFv 10 ng/mL
T2 construct: Bought reagent; also called mPD-1; Fc part of the bought chimera not given, not described
T2 sequence (looked up): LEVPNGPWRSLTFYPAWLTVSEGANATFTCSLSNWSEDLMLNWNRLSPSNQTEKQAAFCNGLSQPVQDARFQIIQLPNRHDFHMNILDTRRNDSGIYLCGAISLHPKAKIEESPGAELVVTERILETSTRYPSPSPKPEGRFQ
Procedure: (§4) After the solution was removed, 350 μL of 1×PBS was dispensed and the solution was removed. This operation was repeated three times to carry out washing. In the above plates, 350 μL of a 1% BSA solution was dispensed and incubated at room temperature for 2 hours to perform blocking. After the solution was removed, 350 μL of 1×PBS was dispensed and the solution was removed. This operation was repeated three times to carry out washing.
(§5) The anti-PD-1-3 scFv antibody purified from a bacterium of the genus Bifidobacterium was diluted with a signal enhancing reagent (Signal Enhancer HIKARI, manufactured by Nacalai Tesque) to prepare solutions having a concentration of 1000 ng/mL, 100 ng/mL and 10 ng/mL. Each solution (100 μL) was dispensed in the plates to which blocking treatment was already applied. […] To blank wells, a signal enhancing reagent (100 μL) alone was dispensed. After the plates were sealed and incubated at room temperature for 2 hours, immobilized mPD-1 was allowed to react with the anti-PD-1-3 scFv antibody. After the solution was removed, 350 μL of 1×PBS was dispensed and the solution was removed. This operation was repeated three times to carry out washing.
(§6) Absorbance at 450 nm was measured, whereas absorbance at 570 nm was measured as a control.

[6] = biological target: T2, Recombinant Mouse PD-1 Fc Chimera (R&D …); assay: ELISA, mPD-1 Fc chimera immobilised, scFv 100 ng/mL
Procedure: as §4, §5, §6

[7] = biological target: T2, Recombinant Mouse PD-1 Fc Chimera (R&D …); assay: ELISA, mPD-1 Fc chimera immobilised, scFv 1000 ng/mL
Procedure: as §4, §5, §6

[8] = biological target: T3, Recombinant Human CTLA-4-Fc Chimera, carrier-free (BioLegend) (human, UniProt P16410 36-161); assay: ELISA, hCTLA-4-Fc chimera immobilised
T3 construct: Bought reagent; also called hCTLA-4; Fc part of the bought chimera not given, not described
T3 sequence (looked up): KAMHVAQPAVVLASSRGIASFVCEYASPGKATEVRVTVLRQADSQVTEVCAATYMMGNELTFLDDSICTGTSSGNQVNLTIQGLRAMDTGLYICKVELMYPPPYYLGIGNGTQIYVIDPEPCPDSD

T1 sequence (Q15116 25-167, change not shown): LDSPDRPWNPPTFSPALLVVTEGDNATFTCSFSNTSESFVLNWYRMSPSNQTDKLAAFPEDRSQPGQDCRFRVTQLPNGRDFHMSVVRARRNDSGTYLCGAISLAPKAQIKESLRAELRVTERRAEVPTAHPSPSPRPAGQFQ

absorbance 450 nm (570 nm as control) [1]: -0.092
absorbance 450 nm (570 nm as control) [2]: -0.106
absorbance 450 nm (570 nm as control) [3]: -0.117
absorbance 450 nm (570 nm as control) [4]: -0.038
B1: anti-CTLA-4-1 scFv antibody purified from Bifidobacterium longum 105-A/pHuSP7L20-scFv-CTLA-4-1 strain (scFv)
scFv: DSAQTSAVVSSRSFPKASSVQVQLVESGGGVVQPGRSLRLSCAASGFTFSSYGMHWVRQAPGKGLEWVAVIWYDGSNKYYADSVKGRFTISRDNSKNTLYLQMNSLRAEDTAVYYCARDPRGATLYYYYYGMDVWGQGTTVTVSSGGGGSGGGGSGGGGSDIQMTQSPSSLSASVGDRVTITCRASQSINSYLDWYQQKPGKAPKLLIYAASSLQSGVPSRFSGSGSGTDFTLTISSLQPEDFATYYCQQYYSTPFTFGPGTKVEIKHHHHHH

absorbance 450 nm (570 nm as control) [1]: 0.058
absorbance 450 nm (570 nm as control) [2]: 0.912
absorbance 450 nm (570 nm as control) [5]: 0.075
absorbance 450 nm (570 nm as control) [3]: 3.06
absorbance 450 nm (570 nm as control) [6]: -0.01
absorbance 450 nm (570 nm as control) [4]: 2.82
absorbance 450 nm (570 nm as control) [7]: 0.014
B2: anti-PD-1-2 scFv antibody purified from Bifidobacterium longum 105-A/pHuSP7L20-scFv-PD-1-2 strain (scFv)
scFv: DSAQTSAVVSSRSFPKASSVMQVQLQESGPGLVKPSQSLSLTCTVTGHSITSDYAWNWIRQFPGDKLEWMGYISYSGYTTYNPSLKSRVSITRDTSKNQFFLQLNSVTTEDTATYFCARDLDYGPWFAYWGQGTTVTVSSGGGGSGGGGSGGGGSDIQMTQSPASLSASVGETVTLTCRASENIHNYLAWYQQKQGKSPQLLVYNVKTLADGVPSRFSGSGSGTQYSLKINSLQPEDFGSYYCQHFWSSPWTFGGGTKLEIKRHHHHHH
notes: also called anti-human PD-1 antibody

binding result [8]: no binding (tested: up to 1000 ng/mL)
absorbance 450 nm (570 nm as control) [5]: 0.312
absorbance 450 nm (570 nm as control) [6]: 0.561
absorbance 450 nm (570 nm as control) [7]: 3.11
B3: anti-PD-1-3 scFv antibody purified from Bifidobacterium longum 105-A/pHuSP7L20-scFv-PD-1-3 strain (scFv)
scFv: DSAQTSAVVSSRSFPKASSVMEVRLLESGGGLVKPEGSLKLSCVASGFTFSDYFMSWVRQAPGKGLEWVAHIYTKSYNYATYYSGSVKGRFTISRDDSRSMVYLQMNNLRTEDTATYYCTRDGSGYPSLDFWGQGTQVTVSSGGGGSGGGGSGGGGSYELTQPPSASVNVGETVKITCSGDQLPKYFADWFHQRSDQTILQVIYDDNKRPSGIPERISGSSSGTTATLTIRDVRAEDEGDYYCFSGYVDSDSKLYVFGSGTQLTVLGHHHHHH
notes: also called anti-mouse PD-1 scFv antibody; mPD-1 scFv
